Drawing on PMC6351631, “Biochemical and Proteomic Characterization of Recombinant Human α/β Hydrolase Domain 6” (Scientific Reports, 2019), this text covers IC50, Km and Vmax for 2 molecules.

The target of series [1] is T1, human alpha/beta hydrolase domain 6 (hABHD6) (Homo sapiens, UniProt Q9BV23, DEL38-40).
T1 construct: gene ABHD6; hΔ29-3-ABHD6 (first 29 residues and Y38YW deleted, N-terminal His6) for MS; full-length hABHD6 in solubilized E. coli membrane fraction for IC50
T1 sequence (Q9BV23 with tags, fused parts or gaps DEL38-40): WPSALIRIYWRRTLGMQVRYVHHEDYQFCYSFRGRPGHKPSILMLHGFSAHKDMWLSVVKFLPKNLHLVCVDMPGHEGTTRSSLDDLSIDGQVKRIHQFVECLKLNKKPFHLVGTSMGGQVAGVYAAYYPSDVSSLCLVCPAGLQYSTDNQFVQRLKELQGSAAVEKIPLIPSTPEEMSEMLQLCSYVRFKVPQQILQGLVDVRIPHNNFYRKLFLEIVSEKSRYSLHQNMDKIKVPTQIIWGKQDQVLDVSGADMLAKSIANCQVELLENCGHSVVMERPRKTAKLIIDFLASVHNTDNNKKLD
Nature of the series: MALDI-TOF MS of tryptic digest showing +[…] Da adduct on purified enzyme; fluorometric AHMMCE inhibition assay. Format: binding.

Substrate in series [2]: CCCCC/C=C\C/C=C\C/C=C\C/C=C\CCCC(=O)OC(CO)CO
Nature of the series: HPLC quantification of arachidonic acid formed, Michaelis-Menten kinetics (Km). It counts as biochemical, Homo sapiens.

`CN(C)C(=O)n1nnc(Cc2ccc(-c3ccccc3)cc2)n1` [AM6701]: the IC50 – broadly, the point on the concentration scale where inhibition reaches its midpoint – in series [1] was 0.9 nM.

B1: human alpha/beta hydrolase domain 6 (hABHD6) (Homo sapiens; DEL38-40) (protein)
chain: WPSALIRIYWRRTLGMQVRYVHHEDYQFCYSFRGRPGHKPSILMLHGFSAHKDMWLSVVKFLPKNLHLVCVDMPGHEGTTRSSLDDLSIDGQVKRIHQFVECLKLNKKPFHLVGTSMGGQVAGVYAAYYPSDVSSLCLVCPAGLQYSTDNQFVQRLKELQGSAAVEKIPLIPSTPEEMSEMLQLCSYVRFKVPQQILQGLVDVRIPHNNFYRKLFLEIVSEKSRYSLHQNMDKIKVPTQIIWGKQDQVLDVSGADMLAKSIANCQVELLENCGHSVVMERPRKTAKLIIDFLASVHNTDNNKKLD
With B1, in series [2], the Km (commonly the concentration of substrate that gives half-maximal velocity) amounted to 139 µM and the Vmax (usually the rate approached at saturating substrate) worked out at 0.35 µM/min/mg.
